# Measured values taken from patent publication EP4261278A1.
# B1: anti-NDM-type carbapenemase mouse mAb 1GH10 (antibody, V domains shown)
# VH: SRDYGLRVELVRPGTSVKVSCKASGYAFSNYLIEWVKQRPGQGLEWIGVINPGRDDTNYNEKFKGKATLTADKSSSTAYMHLSSLTSDDSAVYFCARFPSILRYDSGSFSYFGLDCWGQGTSVTVSS
# VL: DVLMTQTPLSLSVSLGDQASISCRSSQSIVHSDGNTYLDWYLQKPGQSPKLLIYKVSNRFSGVPDRFSGSGSGTDFTLKITRVEAEDLGVYYCFQISRVPFTFGSGTKLEIKR
# B2: anti-NDM-type carbapenemase mouse mAb 12HE11 (antibody, V domains shown)
# VH: VQLHESGPELVKPGASVKLSCTASGYTLSDYHVKWVKQNHGQSLEWIGDIRPQNGDIVYNQKFKDKATLTVDKSSTTAYIRLSSLTSEDSAVYYCAFHYYAYGKWFPYWGQGTLVTVS
# VL: DILMTQSPSSLTVTAGEKVTLSCRSSQSLFNSGNQKNYLTWHQQKPGQSPKLLIYWAVTRESGVPDRFTGSGSGTDFTLTISSVQAEDLAIYYCQNDYSYPLTFGAGTKLELK
# Target: NDM-type carbapenemase (New Delhi metallo-β-lactamase), recombinant
# Assay: indirect ELISA, plate coated with 0.2 µg/mL NDM carbapenemase, goat anti-mouse secondary antibody, TMB
# Conditions: scale: reciprocal dilution
row,Binder,titer
1,B1,> 1.28e+06
2,B2,> 1.28e+06
